From IntAct's records for PubMed 26483485

B1: Cell adhesion molecule CEACAM8 (Homo sapiens), P31997 (parent)
chain: MGPISAPSCRWRIPWQGLLLTASLFTFWNPPTTAQLTIEAVPSNAAEGKEVLLLVHNLPQDPRGYNWYKGETVDANRRIIGYVISNQQITPGPAYSNRETIYPNASLLMRNVTRNDTGSYTLQVIKLNLMSEEVTGQFSVHPETPKPSISSNNSNPVEDKDAVAFTCEPETQNTTYLWWVNGQSLPVSPRLQLSNGNRTLTLLSVTRNDVGPYECEIQNPASANFSDPVTLNVLYGPDAPTISPSDTYYHAGVNLNLSCHAASNPPSQYSWSVNGTFQQYTQKLFIPNITTKNSGSYACHTTNSATGRNRTTVRMITVSDALVQGSSPGLSARATVSIMIGVLARVALI
B2: Cell adhesion molecule CEACAM6 (Homo sapiens), P40199 (parent)
chain: MGPPSAPPCRLHVPWKEVLLTASLLTFWNPPTTAKLTIESTPFNVAEGKEVLLLAHNLPQNRIGYSWYKGERVDGNSLIVGYVIGTQQATPGPAYSGRETIYPNASLLIQNVTQNDTGFYTLQVIKSDLVNEEATGQFHVYPELPKPSISSNNSNPVEDKDAVAFTCEPEVQNTTYLWWVNGQSLPVSPRLQLSNGNMTLTLLSVKRNDAGSYECEIQNPASANRSDPVTLNVLYGPDVPTISPSKANYRPGENLNLSCHAASNPPAQYSWFINGTFQQSTQELFIPNITVNNSGSYMCQAHNSATGLNRTTVTMITVSGSAPVLSAVATVGITIGVLARVALI

Variants of: B1
Details: with ceam6_human CEACAM6, P40199

| effect of a mutation on the interaction | Variant |
| --- | --- |
| disrupting interaction strength | L129A |
| disrupting interaction strength | R77A |
| with no effect | Q123A |

Variants of: B2
Details: with ceam8_human CEACAM8, P31997

| effect of a mutation on the interaction | Variant |
| --- | --- |
| disrupting interaction strength | MGPPSAPPCRLHVPWKEVLLTASLLTFWNPPTTAKLTIESTPFNVAEGKEVLLLAHNLPQNRAGYSWYKGERVDGNSLIVGYVIGTQQATPGPAYSGRETIYPNASLLIQNVTQNDTGFYTLQVIKSDLVNEEATGQFHVYPELPKPSISSNNSNPVEDKDAVAFTCEPEVQNTTYLWWVNGQSLPVSPRLQLSNGNMTLTLLSVKRNDAGSYECEIQNPASANRSDPVTLNVLYGPDVPTISPSKANYRPGENLNLSCHAASNPPAQYSWFINGTFQQSTQELFIPNITVNNSGSYMCQAHNSATGLNRTTVTMITVSGSAPVLSAVATVGITIGVLARVALI [I63A] |
| with no effect | MGPPSAPPCRLHVPWKEVLLTASLLTFWNPPTTAKLTIESTPFNVAEGKEVLLLAHNLPQNRIGYSWYKGERVDGNSLIVGYVIGTQQATPGPAYSGRETIYPNASLLIQNVTQNDTGFYTLAVIKSDLVNEEATGQFHVYPELPKPSISSNNSNPVEDKDAVAFTCEPEVQNTTYLWWVNGQSLPVSPRLQLSNGNMTLTLLSVKRNDAGSYECEIQNPASANRSDPVTLNVLYGPDVPTISPSKANYRPGENLNLSCHAASNPPAQYSWFINGTFQQSTQELFIPNITVNNSGSYMCQAHNSATGLNRTTVTMITVSGSAPVLSAVATVGITIGVLARVALI [Q123A] |
| with no effect | MGPPSAPPCRLHVPWKEVLLTASLLTFWNPPTTAKLTIESTPFNVAEGKEVLLLAHNLPQNRIGYSWYKGERVDGNSAIVGYVIGTQQATPGPAYSGRETIYPNASLLIQNVTQNDTGFYTLQVIKSDLVNEEATGQFHVYPELPKPSISSNNSNPVEDKDAVAFTCEPEVQNTTYLWWVNGQSLPVSPRLQLSNGNMTLTLLSVKRNDAGSYECEIQNPASANRSDPVTLNVLYGPDVPTISPSKANYRPGENLNLSCHAASNPPAQYSWFINGTFQQSTQELFIPNITVNNSGSYMCQAHNSATGLNRTTVTMITVSGSAPVLSAVATVGITIGVLARVALI [L78A] |
| disrupting interaction strength | MGPPSAPPCRLHVPWKEVLLTASLLTFWNPPTTAKLTIESTPFNVAEGKEVLLLAHNLPQNRIGYSWYKGERVDGNSLIVGYVIGTQQATPGPAYSGRETIYPNASLLIQNVTQNDTGFYTLQVIKSDAVNEEATGQFHVYPELPKPSISSNNSNPVEDKDAVAFTCEPEVQNTTYLWWVNGQSLPVSPRLQLSNGNMTLTLLSVKRNDAGSYECEIQNPASANRSDPVTLNVLYGPDVPTISPSKANYRPGENLNLSCHAASNPPAQYSWFINGTFQQSTQELFIPNITVNNSGSYMCQAHNSATGLNRTTVTMITVSGSAPVLSAVATVGITIGVLARVALI [L129A] |
